Results taken from US20150160214A1, “Quantitation of Cellular Adhesion Dynamics Across Immobilized Receptors Under Rheological Shear Flow” (Mayo Foundation for Medical Education and Research, priority 2013, published 2015).

Key:
[1] = molecular target: T1, platelet GPIbα (Homo sapiens, UniProt P07359); assay: Platelet pause times on surface-captured A1 domain variants, parallel plate flow chamber (Table 4, Example 3); type: cell-based; parameters: key to Pause Time 1500 s^−1 (s): NB = “No Binding.”; conditions: for Platelet binding to surface-captured A1 domain variant: any shear rate; for Pause Time 1500 s^−1 (s): shear rate 1500 s^−1, mean ± std. dev., number of measurements in parentheses, NB = No Binding
T1 construct: endogenous in cells; host or cells: platelets in citrated whole blood of normal healthy volunteer donors
Procedure: The determination and analysis of platelet pause times and instantaneous translocation velocities over surface captured A1 and RCAM A1 was performed as previously described (Tischer:2013). Here, the inventor used the Cellix Mims Evo syringe pump controlled by VenaFluxAssay (www.cellixltd.com). Vena8™ CGS biochips were custom designed with 800 μm width by 80 μm height microchannels bonded to glass slides with a Cu^2+ chelated PEG surface serviced by Microsurfaces Inc. (www.proteinslides.com/histag.html) to which the A1 and RCAM A1 in TBS were captured by the 6×His-Tag at a total concentration of 5 μM. Citrated whole blood was obtained from the informed consent of healthy volunteer donors with approval from the Mayo Clinic Institutional Review Board and 100 μL was perfused over the surface captured A1 domains at 700 s^−1. The shear was increased or decreased in a stepwise manner to measure the dynamics of platelet adhesion at high and low shear. After allowing the flow chamber to equilibrate for 50 s at each shear rate, 1 min movies were recorded at 24 frames per second in phase contrast at 200× magnification with 2×2 pixel binning on a Zeiss AxioCam Mrm camera (6.45 μm/px) attached to a Zeiss Axio Observer.D1 inverted microscope. Tracking analysis was performed using MediaCybernetics ImagePro® Premier (www.mediacy.com/index.aspx?page=IP\_Premier) The distance travelled in the direction of flow was calculated from the coordinate data for each platelet as a function of time using √{square root over ((xt−x0)^2)}, where x0 is the coordinates of a platelet on the first frame of the movie and xt is the coordinate on subsequent frames of the movie. These trajectories were differentiated into instantaneous velocities using a Savitzky-Golay algorithm (Savitzky:1964) with a five data point window size and a second order polynomial implemented into a Mathematica (www.wolfram.com/mathematica) notebook written in our lab. Trajectories were retained for statistical analysis if the platelet was present for ≧1 s and travelled a total distance greater than 1 Distance travelled in pixels (px) was converted to (μm) using 6.45 μm/px*2/200=0.0645 μm/px. Pause times were determined by the amount of time (sec) a platelets velocity was 0±4 px/s≅0±0.23 μm/s, within the noise. Data are reported as mean velocities and pause times attained by individual platelets averaged over all platelets analyzed. Integral analysis of the cumulative pause time histogram gives the survival fraction, equation (24).
The rheological interaction of platelets with A1 domain variants harboring type 2M and type 2B mutations was studied using recently developed flow-chamber methods (19). The A1 domains ([…]) were immobilized on Vena8™ biochips (Cellix, Dublin, Ireland) coated with a Cu^2+-chelated poly-ethylene-glycol surface serviced by MicroSurfaces, Inc. (Englewood, N.J.) via the 6×His-Tag, enabling the preservation of the structural properties of the domain in solution and its concomitant effects on platelet adhesion under rheological shear flow. One-hundred microliters of citrated whole blood, obtained from the informed consent of normal healthy volunteer donors with approval from the Mayo Clinic Institutional Review Board (Rochester, Minn.), was perfused at a shear rate of 800 s^−1 followed by Tris-buffered saline. Platelets translocating on the surface-captured domains were filmed at 24 frames/s for 1 min at logarithmic intervals of the shear rate. Coordinates obtained from tracking analysis of the resulting movies were processed using the inventor recently developed statistical analytics for the quantification of cellular adhesion dynamics across immobilized receptors under rheological shear flow (supra). Biochips lacking the surface-captured A1 domain were completely inert to platelets.

[2] = Conformational and thermodynamic classification of A1 domain variants (urea and thermal denaturation, CD, FL, ANS); type: physicochemical; conditions: for Thermodynamic stability: urea and thermal denaturation
Procedure: Circular dichroism measurements were performed on a Model No. 420C circular-dichroism spectrometer (Aviv Biomedical, Inc., Lakewood Township, N.J.). All fluorescence (FL) measurements were performed on a Fluorolog3 spectrofluorometer (HORIBA Jobin-Yvon, Edison, N.J.) equipped with a Model No. LF1-3751 temperature controller (Wavelength Electronics Inc., Bozeman, Mont.). Near- and far-ultraviolet (UV) circular dichroism (CD), intrinsic protein FL, and ANS (8-anilino naphthalene sulfonic acid) […] spectra were determined as described in Tischer et al. (19). Urea denaturation (monitored by far-UV CD) and thermal denaturation (monitored by far-UV CD, intrinsic protein FL, and ANS FL) were performed and analyzed as previously described (19,20). Acrylamide quenching of intrinsic tryptophan fluorescence was performed and analyzed as described in Tischer et al. (19). All spectra were collected at 20° C.
The effects of mutations on the thermodynamic stability of A1 (18) was determined and a framework that incorporated partial unfolding as a means for enhancing the binding affinity of A1 for GPIba was developed (17). Initially, urea-temperature phase diagram method were used for assessing the reversible thermodynamics of unfolding at various temperatures (18,21), and more recently thermal denaturations were used to assess kinetic irreversibility (20,22). The inventor employed these methods using a variety of spectroscopic observables that assess the conformation of these A1 domain variants as a function of temperature and urea.
The observables included the following: (1) Far-UV CD to assess secondary structure content; (2) Near-UV CD to assess tertiary structure content; (3) Intrinsic protein FL to assess solvent exposure of tyrosine and tryptophan residues; (4) Acrylamide quenching of tryptophan FL to assess local solvent exposure of the single tryptophan residue; and (5) Binding of the molten globule indicator-dye, ANS, to assess exposure of hydrophobic surface area.
In total, these studies have provided metrics that are able to classify the conformation of A1 into three types, based on biophysical spectroscopy, as follows:
The type 2B mutations R1306Q and I1309V and the type 2M mutation G1324S have previously been characterized in this conformational class (18). In addition, R1308L and I1372S also belong to this class.
The type 2M mutation A1437T and the type 2B mutation R1341Q belong to this class.
The type 2M mutations F1369I, E1359K, I1425F, S1285F, and R1374H, and the type 2B mutations H1268D, P1337L, V1316M, and V1314D, belong to this class.

| Platelet adhesion function (gain or loss of function) [1] | Platelet binding to surface-captured A1 domain variant [1] | Pause Time 1500 s^−1 (s) [1] | Substance | Conformational class (in words) [2] | Thermodynamic stability [2] | A1 domain Conformation [2] |
| --- | --- | --- | --- | --- | --- | --- |
| mild loss-of-function |  |  | A1437T: vWF A1 domain variant with type 2M vWD mutation A1437T | reduced secondary structure content | low stability |  |
| complete loss-of-function | did not bind platelets at any shear rate | NB (2) | E1359K: vWF A1 domain variant with type 2M vWD mutation E1359K | significantly reduced tertiary structure content |  |  |
| complete loss-of-function | did not bind platelets at any shear rate | NB (2) | F1369I: vWF A1 domain variant with type 2M vWD mutation F1369I | significantly reduced tertiary structure content |  |  |
|  |  | NB (3) | G1324S: vWF A1 domain variant with type 2M vWD mutation G1324S | global native fold |  | N (N = “Native” (native structure with varying thermodynamic stability)) |
|  |  |  | H1268D: vWF A1 domain variant with type 2B vWD mutation H1268D | significantly reduced tertiary structure content |  |  |
|  |  |  | H1308L: vWF A1 domain variant with type 2B vWD mutation, printed H1308L in Table 4, R1308L elsewhere | global native fold |  | N (N = “Native” (native structure with varying thermodynamic stability)) |
|  |  |  | I1309V: vWF A1 domain variant with type 2B vWD mutation I1309V | global native fold |  | N (N = “Native” (native structure with varying thermodynamic stability)) |
|  |  |  | I1372S: vWF A1 domain variant with type 2B vWD mutation I1372S | global native fold |  | N (N = “Native” (native structure with varying thermodynamic stability)) |
|  | did not bind platelets at any shear rate | NB (2) | I1425F: vWF A1 domain variant with type 2M vWD mutation I1425F | significantly reduced tertiary structure content |  |  |
| extreme type 2B gain-of-function |  |  | P1337L: vWF A1 domain variant with type 2B vWD mutation P1337L | significantly reduced tertiary structure content |  |  |
|  |  |  | R1306Q: vWF A1 domain variant with type 2B vWD mutation R1306Q | global native fold |  | N (N = “Native” (native structure with varying thermodynamic stability)) |
|  |  |  | R1341Q: vWF A1 domain variant with type 2B vWD mutation R1341Q | reduced secondary structure content | low stability |  |
|  | did not bind platelets at any shear rate | NB (2) | R1374H: vWF A1 domain variant with type 2M vWD mutation R1374H | significantly reduced tertiary structure content |  |  |
|  | did not bind platelets at any shear rate | NB (2) | S1285F: vWF A1 domain variant with type 2M vWD mutation S1285F | significantly reduced tertiary structure content |  |  |
|  |  |  | V1314D: vWF A1 domain variant with type 2B vWD mutation V1314D | significantly reduced tertiary structure content |  |  |
|  |  |  | V1316M: vWF A1 domain variant with type 2B vWD mutation V1316M | significantly reduced tertiary structure content |  |  |
